Reference: patent US20180282410A1 (Hoffmann-La Roche, published 2018)

T1: full-length human Robo 4 (on cells) (human, UniProt Q8WZ75 28-1007)
T1 sequence: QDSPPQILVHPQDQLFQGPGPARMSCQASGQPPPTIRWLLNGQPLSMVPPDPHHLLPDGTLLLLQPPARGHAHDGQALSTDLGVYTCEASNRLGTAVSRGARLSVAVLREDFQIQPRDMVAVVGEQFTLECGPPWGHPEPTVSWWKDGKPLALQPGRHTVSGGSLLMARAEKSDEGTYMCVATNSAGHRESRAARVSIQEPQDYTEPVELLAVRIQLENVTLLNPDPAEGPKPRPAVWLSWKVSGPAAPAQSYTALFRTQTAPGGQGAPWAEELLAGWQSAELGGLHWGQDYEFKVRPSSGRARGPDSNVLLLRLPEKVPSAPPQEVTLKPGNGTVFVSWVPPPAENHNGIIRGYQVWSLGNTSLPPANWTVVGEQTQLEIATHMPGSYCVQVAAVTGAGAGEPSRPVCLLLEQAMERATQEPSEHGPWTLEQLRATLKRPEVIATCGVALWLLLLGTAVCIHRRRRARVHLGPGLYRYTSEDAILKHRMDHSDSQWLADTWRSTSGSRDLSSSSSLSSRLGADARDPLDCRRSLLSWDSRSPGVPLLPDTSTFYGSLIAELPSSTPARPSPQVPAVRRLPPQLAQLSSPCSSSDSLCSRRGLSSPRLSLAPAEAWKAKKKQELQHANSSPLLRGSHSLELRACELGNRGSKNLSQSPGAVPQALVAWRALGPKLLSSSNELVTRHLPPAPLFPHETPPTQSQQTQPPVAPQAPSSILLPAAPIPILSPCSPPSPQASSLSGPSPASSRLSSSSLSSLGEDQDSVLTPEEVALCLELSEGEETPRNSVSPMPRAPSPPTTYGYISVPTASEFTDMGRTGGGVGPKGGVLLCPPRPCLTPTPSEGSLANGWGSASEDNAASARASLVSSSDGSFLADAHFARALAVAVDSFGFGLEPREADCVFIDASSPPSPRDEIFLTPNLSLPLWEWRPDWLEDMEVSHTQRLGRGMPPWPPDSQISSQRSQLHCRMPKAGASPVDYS

B1: Molecule L, 2+1 Fab-Fab-CrossFab (VH/VL exchange in CD3 binder, CD3 binder V9, Robo 4 binders 01F05) (bispecific antibody)
chain 1: QVQLKQSGAELVKPGASVKISCKTSVYTFTYGYMHWVEQKPGQGLEWIGRIDPDSGNSMYNQKFQGRATLTRDKSSSTVYMELRSLTSEDSAVYYCARSMRYSGYRDYALDLWGQGTQVTVSSASTKGPSVFPLAPSSKSTSGGTAALGCLVKDYFPEPVTVSWNSGALTSGVHTFPAVLQSSGLYSLSSVVTVPSSSLGTQTYICNVNHKPSNTKVDKKVEPKSCDGGGGSGGGGSQVQLKQSGAELVKPGASVKISCKTSVYTFTYGYMHWVEQKPGQGLEWIGRIDPDSGNSMYNQKFQGRATLTRDKSSSTVYMELRSLTSEDSAVYYCARSMRYSGYRDYALDLWGQGTQVTVSSASTKGPSVFPLAPSSKSTSGGTAALGCLVKDYFPEPVTVSWNSGALTSGVHTFPAVLQSSGLYSLSSVVTVPSSSLGTQTYICNVNHKPSNTKVDKKVEPKSCDGGGGSGGGGSDIQMTQSPSSLSASVGDRVTITCRASQDIRNYLNWYQQKPGKAPKLLIYYTSRLESGVPSRFSGSGSGTDYTLTISSLQPEDFATYYCQQGNTLPWTFGQGTKVEIKSSASTKGPSVFPLAPSSKSTSGGTAALGCLVKDYFPEPVTVSWNSGALTSGVHTFPAVLQSSGLYSLSSVVTVPSSSLGTQTYICNVNHKPSNTKVDKKVEPKSC
chain 2: QLVLTQSPSASASLGASVKLTCTLSSQHSSYGITWLQQHPDKAPKYVMYLKSDGSHTKGADIPDRFSGSSSGVHRYLSISNVQPEDEAIYFCVTYDSTHVFGSGTQLTVLGQPKAAPSVTLFPPSSEELQANKATLVCLISDFYPGAVTVAWKADSSPVKAGVETTTPSKQSNNKYAASSYLSLTPEQWKSHRSYSCQVTHEGSTVEKTVAPTECS
chain 3: EVQLVESGGGLVQPGGSLRLSCAASGYSFTGYTMNWVRQAPGKGLEWVALINPYKGVSTYNQKFKDRFTISVDKSKNTAYLQMNSLRAEDTAVYYCARSGYYGDSDWYFDVWGQGTLVTVSSASVAAPSVFIFPPSDEQLKSGTASVVCLLNNFYPREAKVQWKVDNALQSGNSQESVTEQDSKDSTYSLSSTLTLSKADYEKHKVYACEVTHQGLSSPVTKSFNRGEC
B2: Molecule H, 1+1 Fab-CrossFab (VH/VL exchange in CD3 binder, CD3 binder V9, Robo 4 binder 7G2) (bispecific antibody)
chain 1: not shown
chain 2: EIVLTQSPGTLSLSPGERATLSCRASQSVSSSYLAWYQQKPGQAPRLLIYGASSRATGIPDRFSGSGSGTDFTLTISRLEPEDFAVYYCQQGQLPPRTFGQGTKVEIKRTVAAPSVFIFPPSDEQLKSGTASVVCLLNNFYPREAKVQWKVDNALQSGNSQESVTEQDSKDSTYSLSSTLTLSKADYEKHKVYACEVTHQGLSSPVTKSFNRGEC
chain 3: B1 chain 3
B3: Molecule D, 1+1 CrossFab-IgG (VH/VL exchange in CD3 binder, CD3 binder V9, Robo 4 binder 7G2) (bispecific antibody)
chain 1: not shown
chain 2: B2 chain 2
chain 3: B1 chain 3
chain 4: DKTHTCPPCPAPEAAGGPSVFLFPPKPKDTLMISRTPEVTCVVVDVSHEDPEVKFNWYVDGVEVHNAKTKPREEQYNSTYRVVSVLTVLHQDWLNGKEYKCKVSNKALGAPIEKTISKAKGQPREPQVCTLPPSRDELTKNQVSLSCAVKGFYPSDIAVEWESNGQPENNYKTTPPVLDSDGSFFLVSKLTVDKSRWQQGNVFSCSVMHEALHNHYTQKSLSLSPGK
B4: Molecule A, 1+1 CrossFab-IgG (VH/VL exchange in CD3 binder, CD3 binder V9, Robo 4 binder 01F09) (bispecific antibody)
chain 1: not shown
chain 2: QPVLTQSPSASASLGASVKLTCTLNSQFSTYNIGWYQQHRDKPPKYVMFVKGDGGHSKADGIPDRFSGSSSGADRYLTISNIQAEDEAIYFCGADYNNAGQYGCVFGSGTHFTVLGQPKAAPSVTLFPPSSEELQANKATLVCLISDFYPGAVTVAWKADSSPVKAGVETTTPSKQSNNKYAASSYLSLTPEQWKSHRSYSCQVTHEGSTVEKTVAPTECS
chain 3: B1 chain 3
chain 4: B3 chain 4

Key:
[1] = molecular target: T1, full-length human Robo 4 (on cells); assay: cell-based or functional assay
[2] = molecular target: T1, full-length human Robo 4 (on cells); assay: cell-based or functional assay; remark: listed apart in the source

| Binder | EC50 of T-cell mediated killing of HUVECs (LDH release, human PBMCs, E:T 10:1), 24 h [1] | EC50 of T-cell mediated killing of HUVECs (LDH release, human PBMCs, E:T 10:1), 48 h [1] | EC50 of T-cell mediated killing of HUVECs (LDH release, human pan T cells, E:T 5:1, 22 h) [2] |
| --- | --- | --- | --- |
| B1 | 372 pM | 236 pM | – |
| B2 | – | – | 2760 pM |
| B3 | – | – | 3140 pM |
| B4 | – | – | 137 pM |
